Source: paper PMC8032985, “The Interaction Mechanism of Intrinsically Disordered PP2A Inhibitor Proteins ARPP-16 and ARPP-19 With PP2A” (Frontiers in Molecular Biosciences, 2021)
Positions count from the first letter of the chain named. Names and notes keep the numbering of the source.

B1: PP2A regulatory subunit B56δ (natural protein)
chain: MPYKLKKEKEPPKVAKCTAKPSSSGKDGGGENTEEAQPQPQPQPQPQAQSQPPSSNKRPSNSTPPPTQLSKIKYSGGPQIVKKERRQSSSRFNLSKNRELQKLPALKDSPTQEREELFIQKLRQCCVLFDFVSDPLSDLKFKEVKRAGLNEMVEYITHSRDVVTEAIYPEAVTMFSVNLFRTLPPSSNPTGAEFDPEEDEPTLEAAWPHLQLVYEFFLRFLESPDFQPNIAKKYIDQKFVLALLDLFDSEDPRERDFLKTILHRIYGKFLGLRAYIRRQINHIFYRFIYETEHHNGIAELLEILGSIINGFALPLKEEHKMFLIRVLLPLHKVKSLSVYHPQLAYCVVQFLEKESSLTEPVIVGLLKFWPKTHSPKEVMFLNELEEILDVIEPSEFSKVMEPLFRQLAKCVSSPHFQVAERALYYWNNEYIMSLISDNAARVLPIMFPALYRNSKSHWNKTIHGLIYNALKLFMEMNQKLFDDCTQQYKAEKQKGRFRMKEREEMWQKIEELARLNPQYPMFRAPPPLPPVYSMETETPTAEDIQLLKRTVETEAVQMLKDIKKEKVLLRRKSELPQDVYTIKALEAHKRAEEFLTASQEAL
modifications: NT-647-NHS fluorescent dye (Monolith NT Protein labeling kit red NHS)
B2: PP2A regulatory subunit B56ε (natural protein)
chain: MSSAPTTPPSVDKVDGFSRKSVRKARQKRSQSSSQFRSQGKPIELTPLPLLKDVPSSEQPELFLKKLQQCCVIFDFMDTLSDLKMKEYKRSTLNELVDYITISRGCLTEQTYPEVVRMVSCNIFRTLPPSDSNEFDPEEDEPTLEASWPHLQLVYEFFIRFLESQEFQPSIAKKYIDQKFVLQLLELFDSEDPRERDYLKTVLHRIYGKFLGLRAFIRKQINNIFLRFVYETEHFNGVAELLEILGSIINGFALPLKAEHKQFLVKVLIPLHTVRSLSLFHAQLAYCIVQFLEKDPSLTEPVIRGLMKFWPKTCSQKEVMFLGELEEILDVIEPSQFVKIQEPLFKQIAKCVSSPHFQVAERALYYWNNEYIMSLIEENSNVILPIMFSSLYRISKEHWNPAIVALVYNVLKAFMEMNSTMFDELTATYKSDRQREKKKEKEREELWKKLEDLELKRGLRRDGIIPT
modifications: NT-647-NHS fluorescent dye (Monolith NT Protein labeling kit red NHS)
B3: cAMP-regulated phosphoprotein 19 (ARPP-19), wild type (natural protein)
chain: MSAEVPEAASAEEQKEMEDKVTSPEKAEEAKLKARYPHLGQKPGGSDFLRKRLQKGQKYFDSGDYNMAKAKMKNKQLPTAAPDKTEVTGDHIPTPQDLPQRKPSLVASKLAG
modifications: 15N-labelled in the NMR titration
B4: ARPP-19 S62E phosphomimicking mutant (natural protein)
chain: B3 chain with S62E
B5: ARPP-19 S104E phosphomimicking mutant (natural protein)
chain: B3 chain with S104E

Columns and labels:
Assay in all cases: MST; NT-647-NHS-labelled PP2A subunit at 20 nM as target, 12-point twofold dilution series of unlabelled ARPP as ligand; SEC buffer with 0.05% Tween-20; triplicate; single-site binding model
Settings in all cases: both partners purified
[1] = target: T1, ARPP-16 (splice variant of ARPP-19), wild type (human, 15N-labelled in the NMR titration)
T1 construct: one residue left at the N-terminus after TEV cleavage; human ARPP-16, splice variant of ARPP-19 lacking its first 16 residues, UniProt P56211-2; numbers count on: ARPP-16 (P56211-2); pGTvL1-SGC vector; also called ARPP-16 WT; source: E. coli BL21 Gold, purified (glutathione agarose, TEV cleavage, SEC); not shown: GST, N-terminal, cleaved

[2] = target: T2, ARPP-16 S46E phosphomimicking mutant (human)
T2 construct: one residue left at the N-terminus after TEV cleavage; human ARPP-16, UniProt P56211-2, with S46E; numbers count on: ARPP-16 (P56211-2); source: E. coli BL21 Gold, purified (glutathione agarose, TEV cleavage, SEC); not shown: GST, N-terminal, cleaved

[3] = target: T3, ARPP-16 S88E phosphomimicking mutant (human)
T3 construct: one residue left at the N-terminus after TEV cleavage; human ARPP-16, UniProt P56211-2, with S88E; numbers count on: ARPP-16 (P56211-2); source: E. coli BL21 Gold, purified (glutathione agarose, TEV cleavage, SEC); not shown: GST, N-terminal, cleaved

[4] = target: B1
[5] = target: B2
[6] = target: PP2A regulatory subunit B56α (NT-647-NHS fluorescent dye (Monolith NT Protein labeling kit red NHS))
[7] = target: T4, PP2A regulatory subunit B56γ (NT-647-NHS fluorescent dye (Monolith NT Protein labeling kit red NHS))
T4 construct: one residue left at the N-terminus after TEV cleavage; PP2A regulatory subunit B56γ, UniProt Q13362-1; source: E. coli BL21 Gold, purified (glutathione agarose, TEV cleavage, SEC); not shown: GST, N-terminal, cleaved

[8] = target: T5, PP2A scaffolding subunit PR65α, full length (UniProt P30153 1-589, NT-647-NHS fluorescent dye (Monolith NT Protein labeling kit red NHS) in the MST; unlabelled in the NMR titration)
T5 construct: PP2A scaffolding subunit PR65α, full length; pGTvL1-SGC vector, expressed and purified as the ARPP proteins; also called PP2A A-subunit; A-subunit; source: E. coli BL21 Gold, purified (glutathione agarose, TEV cleavage, SEC); not shown: GST, N-terminal, cleaved
T5 sequence (P30153 whole entry): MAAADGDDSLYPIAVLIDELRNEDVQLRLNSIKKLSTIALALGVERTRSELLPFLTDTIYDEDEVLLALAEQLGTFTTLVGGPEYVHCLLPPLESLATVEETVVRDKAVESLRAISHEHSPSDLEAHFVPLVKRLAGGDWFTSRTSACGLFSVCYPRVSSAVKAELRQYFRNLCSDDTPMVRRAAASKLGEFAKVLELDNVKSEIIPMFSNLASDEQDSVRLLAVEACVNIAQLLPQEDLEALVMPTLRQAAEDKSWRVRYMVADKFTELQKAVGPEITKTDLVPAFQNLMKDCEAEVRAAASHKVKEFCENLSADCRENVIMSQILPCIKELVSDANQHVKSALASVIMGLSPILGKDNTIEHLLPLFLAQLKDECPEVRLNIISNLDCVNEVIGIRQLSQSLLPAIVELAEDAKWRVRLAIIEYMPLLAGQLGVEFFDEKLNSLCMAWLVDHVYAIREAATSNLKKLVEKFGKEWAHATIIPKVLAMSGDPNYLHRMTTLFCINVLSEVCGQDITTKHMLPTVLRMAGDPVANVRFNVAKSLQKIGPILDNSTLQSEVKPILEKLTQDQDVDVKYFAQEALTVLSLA

T4 sequence (Q13362 whole entry): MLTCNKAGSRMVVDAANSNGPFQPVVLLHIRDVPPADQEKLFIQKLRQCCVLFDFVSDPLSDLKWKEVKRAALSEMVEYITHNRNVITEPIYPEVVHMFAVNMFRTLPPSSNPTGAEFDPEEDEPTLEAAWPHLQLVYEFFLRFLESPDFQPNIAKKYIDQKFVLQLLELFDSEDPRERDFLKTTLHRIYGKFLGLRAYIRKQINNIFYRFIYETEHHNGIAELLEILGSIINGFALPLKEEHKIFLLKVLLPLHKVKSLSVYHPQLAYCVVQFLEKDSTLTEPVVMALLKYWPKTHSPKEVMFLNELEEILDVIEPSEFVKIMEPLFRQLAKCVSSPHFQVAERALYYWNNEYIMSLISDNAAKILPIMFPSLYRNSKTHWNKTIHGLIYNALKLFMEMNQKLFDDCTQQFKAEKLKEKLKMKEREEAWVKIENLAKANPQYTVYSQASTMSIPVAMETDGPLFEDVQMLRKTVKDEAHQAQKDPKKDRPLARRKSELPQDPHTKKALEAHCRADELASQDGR
T3 sequence (Q14738 whole entry S88E): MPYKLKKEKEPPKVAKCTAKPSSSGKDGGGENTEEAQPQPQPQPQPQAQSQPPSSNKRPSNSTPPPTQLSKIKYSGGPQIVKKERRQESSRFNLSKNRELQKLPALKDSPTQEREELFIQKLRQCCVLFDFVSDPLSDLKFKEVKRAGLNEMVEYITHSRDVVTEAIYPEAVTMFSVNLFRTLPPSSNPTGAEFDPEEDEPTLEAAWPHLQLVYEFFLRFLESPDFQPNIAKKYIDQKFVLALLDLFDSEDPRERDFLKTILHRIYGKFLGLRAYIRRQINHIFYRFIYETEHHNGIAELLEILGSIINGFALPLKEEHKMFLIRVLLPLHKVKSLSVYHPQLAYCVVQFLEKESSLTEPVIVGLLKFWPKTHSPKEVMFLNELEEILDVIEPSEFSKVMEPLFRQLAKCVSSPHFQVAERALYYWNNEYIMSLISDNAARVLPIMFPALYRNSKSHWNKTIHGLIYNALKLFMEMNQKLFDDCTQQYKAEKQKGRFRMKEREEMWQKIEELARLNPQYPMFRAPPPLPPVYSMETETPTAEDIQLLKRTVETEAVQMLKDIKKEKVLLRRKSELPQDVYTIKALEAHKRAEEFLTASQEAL

| Binder | Kd [1] | Kd [2] | Kd [3] | Kd [4] | Kd [5] | Kd [6] | Kd [7] | Kd [8] |
| --- | --- | --- | --- | --- | --- | --- | --- | --- |
| B1 | > 700 µM | 110 µM | 40.7 µM |  |  |  |  |  |
| B2 | > 500 µM | 250 µM |  |  |  |  |  |  |
| B3 |  |  |  | 430 µM | > 800 µM | 470 µM | > 1300 µM | 7.9 µM |
| B4 |  |  |  | 95 µM | > 700 µM | 110 µM | 195 µM | 7.5 µM |
| B5 |  |  |  | 195 µM |  | 85 µM | 320 µM | 6.1 µM |
